Measured values: patent publication US20250084178A1 (ARCUS BIOSCIENCES, published 2025)
One block for each binder: values may come before it.

Columns and labels:
[1] = target: T1, human CD39 expressed on the cell surface (human, UniProt P49961 1-510); test: flow cytometry on human PBMCs gated on CD19+ B cells, 400 uM ATP (N = 6)
T1 construct: full-length human CD39 transfected into CHO-K1, or endogenous human CD39 on primary cells and cell lines, or human CD39 of knock-in mice; also called Human CD39-CHO-K1; cellular human CD39
T1 sequence: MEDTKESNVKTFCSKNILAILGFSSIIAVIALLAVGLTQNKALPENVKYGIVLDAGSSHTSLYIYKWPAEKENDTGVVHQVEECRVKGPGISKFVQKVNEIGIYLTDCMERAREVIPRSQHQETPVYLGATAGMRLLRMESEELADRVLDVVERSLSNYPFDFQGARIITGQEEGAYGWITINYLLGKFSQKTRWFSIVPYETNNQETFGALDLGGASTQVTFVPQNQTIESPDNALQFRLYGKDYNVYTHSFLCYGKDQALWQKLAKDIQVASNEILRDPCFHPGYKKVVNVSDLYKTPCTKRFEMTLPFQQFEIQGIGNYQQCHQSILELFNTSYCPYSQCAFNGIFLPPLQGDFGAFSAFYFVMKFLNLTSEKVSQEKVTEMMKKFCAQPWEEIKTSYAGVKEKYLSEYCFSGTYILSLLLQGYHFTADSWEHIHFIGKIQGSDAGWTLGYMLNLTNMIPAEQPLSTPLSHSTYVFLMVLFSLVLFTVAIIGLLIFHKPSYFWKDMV

[2] = target: T2, soluble His-tagged human CD39 ECD protein (human, UniProt P49961 38-478); test: SPR, bivalent avidity mode (CD39 ECD immobilized, antibody analyte); Rmax 524.16 RU surface
T2 construct: also called human CD39 ECD His-tagged antigen; Sino Biological Cat. No. 16020-H08B
T2 sequence: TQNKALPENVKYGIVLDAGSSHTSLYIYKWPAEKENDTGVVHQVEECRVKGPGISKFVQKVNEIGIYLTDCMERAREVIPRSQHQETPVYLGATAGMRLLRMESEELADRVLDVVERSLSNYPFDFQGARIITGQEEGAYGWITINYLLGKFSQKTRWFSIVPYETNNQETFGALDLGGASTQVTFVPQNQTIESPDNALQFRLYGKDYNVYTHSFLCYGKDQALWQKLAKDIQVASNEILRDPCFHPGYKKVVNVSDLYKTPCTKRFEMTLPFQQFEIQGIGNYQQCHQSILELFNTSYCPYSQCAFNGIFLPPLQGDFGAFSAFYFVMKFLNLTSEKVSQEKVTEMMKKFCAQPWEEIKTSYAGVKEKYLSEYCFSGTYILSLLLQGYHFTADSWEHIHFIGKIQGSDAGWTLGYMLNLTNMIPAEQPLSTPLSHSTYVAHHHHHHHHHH

[3] = target: T3, recombinant human CD39 (soluble) (human, UniProt P49961 38-478, limits assumed); test: cell-based or functional assay
T3 sequence (looked up): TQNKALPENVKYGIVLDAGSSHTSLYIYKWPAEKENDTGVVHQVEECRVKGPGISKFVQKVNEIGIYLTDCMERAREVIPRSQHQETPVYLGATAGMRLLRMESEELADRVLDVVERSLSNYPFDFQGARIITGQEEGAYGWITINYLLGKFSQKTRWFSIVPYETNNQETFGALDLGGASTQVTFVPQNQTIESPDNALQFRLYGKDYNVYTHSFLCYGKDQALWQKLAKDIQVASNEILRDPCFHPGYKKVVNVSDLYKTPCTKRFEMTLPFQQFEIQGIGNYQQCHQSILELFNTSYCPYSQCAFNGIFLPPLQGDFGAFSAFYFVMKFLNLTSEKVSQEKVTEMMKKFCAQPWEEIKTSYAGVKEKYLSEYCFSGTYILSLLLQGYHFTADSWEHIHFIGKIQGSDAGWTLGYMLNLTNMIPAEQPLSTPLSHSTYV

[4] = target: T1, human CD39 expressed on the cell surface; test: flow cytometry on human PBMCs gated on CD19+ B cells, 0 uM ATP (N = 8)
[5] = target: T1, human CD39 expressed on the cell surface; test: cell-based or functional assay
[6] = target: T1, human CD39 expressed on the cell surface; test: cell-based or functional assay; remark: listed apart in the source
[7] = target: T2, soluble His-tagged human CD39 ECD …; test: SPR, bivalent avidity mode (CD39 ECD immobilized, antibody analyte); Rmax 420.45 RU surface
[8] = target: T1, human CD39 expressed on the cell surface; test: flow cytometry on human PBMCs gated on CD14+ monocytes, 0 uM ATP (N = 8)
[9] = target: T1, human CD39 expressed on the cell surface; test: flow cytometry on human PBMCs gated on CD19+ B cells, one donor, 0 µM ATP
[10] = target: T2, soluble His-tagged human CD39 ECD …; test: SPR, bivalent avidity mode; average over six surface densities; average of different density surfaces; CD39 ECD immobilized
[11] = target: T2, soluble His-tagged human CD39 ECD …; test: SPR, monovalent affinity mode; average over seven surface densities
[12] = target: T1, human CD39 expressed on the cell surface; test: cell-based or functional assay; remark: listed apart in the source
[13] = target: T1, human CD39 expressed on the cell surface; test: flow cytometry on human PBMCs gated on CD19+ B cells, one donor, 400 µM ATP
[14] = target: T1, human CD39 expressed on the cell surface; test: flow cytometry on human PBMCs gated on CD14+ monocytes, 400 uM ATP (N = 6)
[15] = target: T2, soluble His-tagged human CD39 ECD …; test: SPR (Biacore 8K), antibody captured via anti-human Fc, CD39 ECD analyte
[16] = target: T4, cynomolgus monkey CD39 expressed on HEK-293 cells (cynomolgus monkey, UniProt P49961 5-510 (human entry)); test: FACS on HEK293 cells overexpressing cynomolgus CD39
T4 construct: also called Cynomolgus Monkey CD39-HEK293
T4 chain: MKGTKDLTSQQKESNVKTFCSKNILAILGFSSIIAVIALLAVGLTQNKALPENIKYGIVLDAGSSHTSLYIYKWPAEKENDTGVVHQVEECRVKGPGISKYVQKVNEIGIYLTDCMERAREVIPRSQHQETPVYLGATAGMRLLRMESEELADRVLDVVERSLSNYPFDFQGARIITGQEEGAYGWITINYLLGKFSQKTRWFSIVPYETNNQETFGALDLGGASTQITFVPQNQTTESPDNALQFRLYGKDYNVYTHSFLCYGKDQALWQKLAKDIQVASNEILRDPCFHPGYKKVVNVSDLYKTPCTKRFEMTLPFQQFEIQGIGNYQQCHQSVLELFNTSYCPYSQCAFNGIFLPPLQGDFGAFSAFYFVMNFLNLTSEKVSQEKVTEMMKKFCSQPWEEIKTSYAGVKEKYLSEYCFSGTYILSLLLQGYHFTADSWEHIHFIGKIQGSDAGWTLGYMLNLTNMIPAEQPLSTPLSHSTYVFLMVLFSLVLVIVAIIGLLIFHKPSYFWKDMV

[17] = target: T1, human CD39 expressed on the cell surface; test: FACS on CHO-K1 cells overexpressing human CD39
[18] = target: T1, human CD39 expressed on the cell surface; test: flow cytometry on purified human CD14+ monocytes, 400 uM ATP
[19] = target: T1, human CD39 expressed on the cell surface; test: cell-based or functional assay; remark: listed apart in the source
[20] = target: T1, human CD39 expressed on the cell surface; test: cell-based or functional assay; remark: listed apart in the source
[21] = target: T1, human CD39 expressed on the cell surface; test: flow cytometry on purified human CD14+ monocytes, 0 uM ATP
[22] = target: T1, human CD39 expressed on the cell surface; test: competition flow cytometry on MOLP-8 cells, competitor hu39.1_IGG4.P-AF647
[23] = target: T2, soluble His-tagged human CD39 ECD …; test: SPR, bivalent avidity mode (CD39 ECD immobilized, antibody analyte); Rmax 896.01 RU surface
[24] = target: T2, soluble His-tagged human CD39 ECD …; test: SPR, bivalent avidity mode; average over six surface densities

EC50 [1]: 0.3 nM
Kd [2]: 0.00656 nM
IC50, inhibition of recombinant CD39 enzymatic activity, 20 uM ATP [3]: 0.19 nM
Max Inhibition (%), recombinant CD39, 20 uM ATP [3]: 80%
EC50 [4]: 0.2 nM
IC50, CD39 enzymatic inhibition on human monocytes, 20 uM ATP [5]: 0.1 nM
Max Inhibition (%), human monocytes, 20 uM ATP [5]: 69%
IC50, CD39 enzymatic inhibition on THP-1 cells, 20 uM ATP [6]: 0.075 nM
Max Inhibition (%), THP-1 cells [6]: 55%
Kd [7]: 0.00998 nM
EC50 [8]: 0.3 nM
EC50 (read off the curve) [9]: ~0.2 nM
Kd [10]: 0.01 nM
Kd [11]: 0.24 nM
IC50, CD39 enzymatic inhibition on human monocytes, 400 uM ATP [12]: 0.083 nM
Max Inhibition (%), human monocytes, 400 uM ATP [12]: 62%
EC50 (read off the curve) [13]: ~0.2 nM
EC50 [14]: 0.5 nM
B1: hu39.5_IGG1.AA (antibody, human IgG1, kappa, L234A L235A)
heavy: not shown
light: DTVLTQSPASLAVSPGQRATITCRASEGVKSYMHWYQQKPGQPPKLLIYKASNLASGVPARFSGSGSGTDFTLTINPVEADDTANYYCQQSWNDPTFGQGTKLEIKRTVAAPSVFIFPPSDEQLKSGTASVVCLLNNFYPREAKVQWKVDNALQSGNSQESVTEQDSKDSTYSLSSTLTLSKADYEKHKVYACEVTHQGLSSPVTKSFNRGEC
notes: humanized variant of antibody 39, human IgG1 L234A/L235A

Kd [15]: 0.121 nM
IC50, CD39 enzymatic inhibition on human monocytes, 20 uM ATP [5]: 0.15 nM
Max Inhibition (%), human monocytes, 20 uM ATP [5]: 72%
IC50, CD39 enzymatic inhibition on THP-1 cells, 20 uM ATP [6]: 0.062 nM
Max Inhibition (%), THP-1 cells [6]: 83%
EC50 [16]: 0.088 nM
EC50 [17]: 0.44 nM
EC50 [18]: 10 nM
Human THP-1 CD39 inhibition IC50 [19]: 0.1 nM
IC50, CD39 enzymatic inhibition on SK-MEL-5 cells, 20 uM ATP [20]: 0.14 nM
Max Inhibition (%), SK-MEL-5 cells [20]: 66%
IC50, CD39 enzymatic inhibition on human monocytes, 400 uM ATP [12]: 0.2 nM
Max Inhibition (%), human monocytes, 400 uM ATP [12]: 60%
EC50 [21]: 3.9 nM
B2: hu39.5_IGG4.P (antibody, human IgG4 S228P, kappa)
heavy: not shown
light: B1 light
notes: humanized variant of antibody 39 (VH3 + VL1 with I2T), IgG4 (S228P)

EC50 [1]: 1 nM
IC50, inhibition of recombinant CD39 enzymatic activity, 20 uM ATP [3]: 0.3 nM
Max Inhibition (%), recombinant CD39, 20 uM ATP [3]: 86%
EC50 [4]: 1 nM
IC50, CD39 enzymatic inhibition on human monocytes, 20 uM ATP [5]: 1 nM
Max Inhibition (%), human monocytes, 20 uM ATP [5]: 69%
IC50, CD39 enzymatic inhibition on THP-1 cells, 20 uM ATP [6]: 0.53 nM
Max Inhibition (%), THP-1 cells [6]: 62%
EC50 (read off the curve) [9]: ~2 nM
Max Competition [22]: -22%
Kd [23]: 0.105 nM
Kd [11]: 0.19 nM
IC50, CD39 enzymatic inhibition on human monocytes, 400 uM ATP [12]: 0.7 nM
Max Inhibition (%), human monocytes, 400 uM ATP [12]: 63%
EC50 (read off the curve) [13]: ~2 nM
Kd [24]: 0.3 nM
B3: hu31.4_IGG1.AA (antibody, human IgG1, kappa, L234A L235A)
heavy: not shown
light: DIVLTQSPALAVSPGQRATITCRTQQTVDHYGTTYMNWYQQKPGQPPKLLIYLASSLASGVPARFSGSGSGTDFTLTINPVEADDTANYYCQQSRNLWTFGGGTKVEIKRTVAAPSVFIFPPSDEQLKSGTASVVCLLNNFYPREAKVQWKVDNALQSGNSQESVTEQDSKDSTYSLSSTLTLSKADYEKHKVYACEVTHQGLSSPVTKSFNRGEC
notes: humanized variant of antibody 31, human IgG1 L234A/L235A
